For three molecules, Kd, koff and kon results are on record in paper PMC13022382 (Nature Communications, 2026).

For one experiment, the target named is T1, biotin-Hpep9 conjugate.
T1 chain: {Biotin-PEG4′}-RGWSWREMFRLFRT
Nature of the experiment: BLI. For orientation: BLI is a label-free optical method that tracks binding on a fibre tip over time.

The target in another experiment is T2, biotin-Hpep11 conjugate.
T2 chain: {Biotin-PEG4′}-SKRDWREMFRLFRT
Nature of the experiment: BLI.

In another experiment the target is T3, TMR-Hpep9 conjugate.
T3 peptide: {TMR‑6COOH-PEG2′}-RGWSWREMFRLFRT
Nature of the experiment: fluorescence polarisation.

A further experiment addresses T4, TMR-Hpep11 conjugate.
T4 peptide: {TMR‑6COOH-PEG2′}-SKRDWREMFRLFRT
Nature of the experiment: fluorescence polarisation. (Polarisation of emitted light reports the rotation of a fluorescent probe.)

Primed or numbered codes have the meaning given here. No end group written: not given here. *: point of attachment. TMR‑6COOH = tetramethylrhodamine, CN(C)c1ccc2c(-c3cc(C(=O)*)ccc3C(=O)[O-])c3ccc(N(C)C)cc3[o+]c2c1; Biotin = O=C1N[C@H]2[C@H](CS[C@H]2CCCCC(=O)*)N1; PEG2′ = Fmoc-PEG2-OH spacer; PEG4′ = not defined here

B1: TMR-labeled cpHaloΔ3 (domain or fragment)
chain: EKKGDVGRKLIIDQNVFIEGTLPMGVVRPLTEEEMDHYREPFLNPKDREPLWRFPNELPIAGEPANIVALVEEYMDWLHQSPVPKLLFWGTPGVLIPPAEAARLAKSLPNCKAVDIGPGLNLLQEDNPDLIGSEIARWLSTLEIKSKYDRDQILKIIAELEKKTGGSIGTGFPFDPHYVEVLGSRMHYVDVGPRDGTPVLFLHGNPTSSYVWRNIIPHVAPTHRCIAPDLIGMGKSDKPDLGYFFDDHVRFMDAFIEALGLEEVVLVIHDWGSALGFHWAKRHPERVKGIAFMEFIRPIPTWDEWGDVE
modifications: labeled with the HaloTag ligand CA-TMR (chloroalkane derivative of tetramethylrhodamine)
What is called Kd is the free concentration of one partner at which half of the binding sites on the other are occupied at equilibrium, for simple one-to-one binding. A low value points to a tighter complex. For orientation: koff means the first-order rate constant of dissociation. Low readings indicate slow dissociation, high ones fast dissociation. What is called kon is a measure of how fast the partners come together. Read a high kon as faster complex formation. Regarding B1, in the experiment with biotin-Hpep9 conjugate, binding was put at a Kd of 4.86 nM, the koff stood at 0.00104 s⁻¹ and the kon stood at 214000 M⁻¹ s⁻¹. In the experiment with biotin-Hpep11 conjugate, this molecule returned a dissociation constant (Kd) of 10.6 nM, a koff of 0.000687 s⁻¹ and an on-rate constant (kon) of 64900 M⁻¹ s⁻¹.

B2: SiR-labeled cpHaloΔ3 (domain or fragment)
chain: EKKGDVGRKLIIDQNVFIEGTLPMGVVRPLTEEEMDHYREPFLNPKDREPLWRFPNELPIAGEPANIVALVEEYMDWLHQSPVPKLLFWGTPGVLIPPAEAARLAKSLPNCKAVDIGPGLNLLQEDNPDLIGSEIARWLSTLEIKSKYDRDQILKIIAELEKKTGGSIGTGFPFDPHYVEVLGSRMHYVDVGPRDGTPVLFLHGNPTSSYVWRNIIPHVAPTHRCIAPDLIGMGKSDKPDLGYFFDDHVRFMDAFIEALGLEEVVLVIHDWGSALGFHWAKRHPERVKGIAFMEFIRPIPTWDEWGDVE
modifications: labeled with the HaloTag ligand CA-SiR (chloroalkane derivative of silicon rhodamine)
As to B2, the Kd with biotin-Hpep9 conjugate is 18.8 nM; with TMR-Hpep9 conjugate, 3.26 nM; with TMR-Hpep11 conjugate, 1.34 nM. Moreover, the koff with biotin-Hpep9 conjugate was determined as 0.00149 s⁻¹. Moreover, the figures for the kon with biotin-Hpep9 conjugate and in the experiment with biotin-Hpep11 conjugate were 78900 M⁻¹ s⁻¹ and 50000 M⁻¹ s⁻¹, respectively.

B3: cpHaloΔ2 (His10-tagged) (domain or fragment)
chain: DVGRKLIIDQNVFIEGTLPMGVVRPLTEEEMDHYREPFLNPKDREPLWRFPNELPIAGEPANIVALVEEYMDWLHQSPVPKLLFWGTPGVLIPPAEAARLAKSLPNCKAVDIGPGLNLLQEDNPDLIGSEIARWLSTLEIKSKYDRDQILKIIAELEKKTGGSIGTGFPFDPHYVEVLGSRMHYVDVGPRDGTPVLFLHGNPTSSYVWRNIIPHVAPTHRCIAPDLIGMGKSDKPDLGYFFDDHVRFMDAFIEALGLEEVVLVIHDWGSALGFHWAKRHPERVKGIAFMEFIRPIPTWDEW
As to B3, the results for the Kd with TMR-Hpep9 conjugate and with TMR-Hpep11 conjugate were 26.3 nM and 38.3 nM, respectively.
